Data reported in patent US20230049752A1 (University of California, published 2023).

What was measured:
[1] = target: human Claudin-6 (CLDN6) (human) (UniProt P56747); assay: FACS, 1.5 ug Ab, ARK2 cells (2nd Ab only 1351.21)
[2] = target: human Claudin-6 (CLDN6) (human) (UniProt P56747); assay: FACS, limiting dilution, ARK2 cells
[3] = target: human Claudin-6 (CLDN6) (human) (UniProt P56747); assay: FACS, 1.5 ug Ab, 293T clone expressing human CLDN6 (2nd Ab only 768.07)
[4] = target: human Claudin-6 (CLDN6) (human) (UniProt P56747); assay: FACS, 0.3 ug Ab, 293T clone expressing human CLDN6 (2nd Ab only 768.07)
[5] = target: human Claudin-6 (CLDN6) (human) (UniProt P56747); assay: FACS, 0.3 ug Ab, ARK2 cells (2nd Ab only 1351.21)
[6] = target: human Claudin-6 (CLDN6) (human) (UniProt P56747); assay: KinExA, HEK293T CLDN6-mGFP A11 cells detached by Versene, equilibrium curves 500pM, 10nM; printed 95% CI 0.53nM - 2.03nM
mouse Claudin-6 (CLDN6) = target: T1, mouse Claudin-6 (CLDN6) (mouse, UniProt Q9Z262 1-219); assay: FACS, 293T clone expressing mouse CLDN6, dose not stated (2nd Ab only 1061.72)
T1 construct: whole, on cells; GFP fusion on engineered HEK293T cells; also called Mouse CLDN6; murine CLDN6
T1 sequence (looked up): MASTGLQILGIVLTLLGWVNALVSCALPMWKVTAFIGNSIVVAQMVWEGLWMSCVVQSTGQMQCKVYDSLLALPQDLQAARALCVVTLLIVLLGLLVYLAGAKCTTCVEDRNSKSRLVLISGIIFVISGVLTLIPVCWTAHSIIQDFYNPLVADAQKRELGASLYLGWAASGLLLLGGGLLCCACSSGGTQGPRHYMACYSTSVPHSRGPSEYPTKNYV
Protocol: Two doses (1.5 μg or 0.3 μg) of the humanized antibodies were tested for binding to either human CLDN6 or murine CLDN6 which proteins were expressed by engineered 293T clones.

[7] = target: human Claudin-6 (CLDN6) (human) (UniProt P56747); assay: flow cytometry, UMUC4 cells (positive cell line); 2nd Ab only 1,114.73
[8] = target: human Claudin-6 (CLDN6) (human) (UniProt P56747); assay: FACS, limiting dilution, UMUC4 cells
[9] = target: human Claudin-6 (CLDN6) (human) (UniProt P56747); assay: flow cytometry, HEK293T CLDN6-mGFP A11 cells (positive artificial OE cell line); 2nd Ab only 1,242.89
[10] = target: human Claudin-6 (CLDN6) (human) (UniProt P56747); assay: FACS, limiting dilution, OV90 cells

B1: AB3-7 (antibody, V domains shown)
VH: EVQLLESGGGLVQPGGSMRLSCAASGFTFSNYWMNWVRQAPGKGLEWVAQIRLKSDNYATHYADSVKGRFTISRDDSKNTVYLQMNSLRAEDTGVYYCNDGPPSGSWGQGTLLTVSS
VL: DIQMTQSPSSLSASVGDRVTITCRISENIYSYLAWYQQKPGKAPKLLVYNAKILVEGVPSRFSGSGSGTDFTLTISSLQPEDFGTYYCQHHYTVPWTFGQGTKLEIK
notes: humanized; also called AB23; humanized AB3-7
FACS fluorescence [1]: 90400
FACS signal at 0.32 nM [2]: 402
FACS signal at 1.6 nM [2]: 537
FACS signal at 8 nM [2]: 991
FACS signal at 40 nM [2]: 1640
FACS signal at 200 nM [2]: 3060
FACS signal at 1000 nM [2]: 11400
FACS fluorescence [3]: 169000
FACS fluorescence [4]: 106000
FACS fluorescence [5]: 36000
Kd [6]: 1.13 nM
FACS fluorescence (mouse Claudin-6 (CLDN6)): 56100
flow cytometry signal at 0.1µg Ab/Sample [7]: 8820
flow cytometry signal at 1µg Ab/Sample [7]: 27300
FACS signal at 0.32 nM [8]: 604
FACS signal at 1.6 nM [8]: 570
FACS signal at 8 nM [8]: 724
FACS signal at 40 nM [8]: 1120
FACS signal at 200 nM [8]: 2110
FACS signal at 1000 nM [8]: 9840
flow cytometry signal at 0.1µg Ab/Sample [9]: 107000
FACS signal at 0.32 nM [10]: 393
FACS signal at 1.6 nM [10]: 567
FACS signal at 8 nM [10]: 565
FACS signal at 40 nM [10]: 1140
FACS signal at 200 nM [10]: 2330
FACS signal at 1000 nM [10]: 9390
